The record followed here is patent publication US20060292657A1, “Phex substrates and methods using same” (priority 2003, published 2006).

As usually defined, the Km is the substrate concentration at which the rate is half of its maximum. Usually kcat stands for the number of substrate molecules converted per active site and unit of time at saturation. One may read the kcat/Km as the second-order rate constant that governs catalysis at low substrate concentration.

Holding throughout (experiment): Kinetic parameters for hydrolysis of internally quenched fluorogenic peptides by secPHEX
What all share (format): biochemical, human
Details in all cases: other: 37° C., 10 mM Bis-Tris buffer pH 5.5, 150 mM NaCl

Substrate in data set [1]: CC[C@H](C)[C@H](NC(=O)[C@H](CCC(=O)O)NC(=O)[C@H](CC(N)=O)NC(=O)[C@H](CC(=O)O)NC(=O)[C@H](CC(C)C)NC(=O)CNC(=O)[C@H](CCCNC(=N)N)NC(=O)c1ccccc1N)C(=O)N[C@@H](CCC(N)=O)C(=O)NCCNc1ccc([N+](=O)[O-])cc1[N+](=O)[O-]
In a few lines: (§1)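 Purified human recombinant secPHEX hydrolysing internally quenched fluorogenic peptides at 37° C in 10 mM Bis-Tris pH 5.5, 150 mM NaCl; fluorescence (ex 320, em 420 nm) followed continuously, <5% substrate hydrolysed, inner-filter corrected. Km and kcat by non-linear regression; kcat/Km under [S]<<Km where applicable.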

Substrate in data set [2]: C[C@H](NC(=O)[C@H](CC(=O)O)NC(=O)[C@H](CCC(=O)O)NC(=O)[C@H](CO)NC(=O)[C@H](CCCNC(=N)N)NC(=O)c1ccccc1N)C(=O)NCC(=O)N[C@@H](Cc1ccccc1)C(=O)N[C@@H](CCC(N)=O)C(=O)NCCNc1ccc([N+](=O)[O-])cc1[N+](=O)[O-]
In a few lines:
as §1

Substrate in data set [3]: C[C@H](NC(=O)[C@H](CO)NC(=O)[C@H](CCCNC(=N)N)NC(=O)[C@@H](NC(=O)[C@H](Cc1c[nH]cn1)NC(=O)[C@H](CCCNC(=N)N)NC(=O)[C@H](CCCNC(=N)N)NC(=O)c1ccccc1N)[C@@H](C)O)C(=O)N[C@@H](CCC(=O)O)C(=O)N[C@@H](CC(=O)O)C(=O)N[C@@H](CC(=O)O)C(=O)N[C@@H](CO)C(=O)N[C@@H](CCC(=O)O)C(=O)N[C@@H](CCCNC(=N)N)C(=O)N[C@@H](CCC(N)=O)C(=O)NCCNc1ccc([N+](=O)[O-])cc1[N+](=O)[O-]
Put shortly: as §1

Substrate in data set [4]: NC(=O)CC[C@H](NC(=O)[C@H](Cc1ccc(O)cc1)NC(=O)[C@H](CC(=O)O)NC(=O)[C@H](CO)NC(=O)[C@H](Cc1ccccc1)NC(=O)CNC(=O)c1ccccc1N)C(=O)NCCNc1ccc([N+](=O)[O-])cc1[N+](=O)[O-]
In a few lines: as §1

B1: human recombinant secPHEX (Homo sapiens) (protein)
chain: SLQAKQEYCLKPECIEAAAAILSKVNLSVDPCDNFFRFACDGWISNNPIPEDMPSYGVYPWLRHNVDLKLKELLEKSISRRRDTEAIQKAKILYSSCMNEKAIEKADAKPLLHILRHSPFRWPVLESNIGPEGVWSERKFSLLQTLATFRGQYSNSVFIRLYVSPDDKASNEHILKLDQATLSLAVREDYLDNSTEAKSYRDALYKFMVDTAVLLGANSSRAEHDMKSVLRLEIKIAEIMIPHENRTSEAMYNKMNISELSAMIPQFDWLGYIKKVIDTRLYPHLKDISPSENVVVRVPQYFKDLFRILGSERKKTIANYLVWRMVYSRIPNLSRRFQYRWLEFSRVIQGTTTLLPQWDKCVNFIESALPYVVGKMFVDVYFQEDKKEMMEELVEGVRWAFIDMLEKENEWMDAGTKRKAKEKARAVLAKVGYPEFIMNDTHVNEDLKAIKFSEADYFGNVLQTRKYLAQSDFFWLRKAVPKTEWFTNPTTVNAFYSASTNQIRFPAGELQKPFFWGTEYPRSLSYGAIGVIVGHEFTHGFDNNGRKYDKNGNLDPWWSTESEEKFKEKTKCMINQYSNYYWKKAGLNVKGKRTLGENIADNGGLREAFRAYRKWINDRRQGLEEPLLPGITFTNNQLFFLSYAHVRCNSYRPEAAREQVQIGAHSPPQFRVNGAISNFEEFQKAFNCPPNSTMNRGMDSCRLW
notes: pure soluble form of PHEX (secPHEX); made in house
Consider B1, for which the Km was determined as 7.0 µM in data set [1], 4.1 µM in data set [2], 3.0 µM in data set [3] and 13.3 µM in data set [4]. The kcat was found to be 0.03 s⁻¹ in data set [1], 0.06 s⁻¹ in data set [2], 0.2 s⁻¹ in data set [3] and 0.6 s⁻¹ in data set [4]. Further, the kcat/Km in data set [1] was 4300 M⁻¹ s⁻¹; in data set [2], 14600 M⁻¹ s⁻¹; in data set [3], 66700 M⁻¹ s⁻¹; in data set [4], 45100 M⁻¹ s⁻¹.
